Results on five molecules are retold here after patent US20070178531A1 (BIOCHECK, published 2007).

B1: rabbit monoclonal anti-human Id3, clone #BCH-4/#3-3 (antibody, V domains shown)
VH: QSVEESGGRLVTPGTPLTLTCTVSGIDLSSYAMSWVRQAPGKGLEWIGVIFPSNNVYYASWAKGRFTISKTSTTVDLKITSPTTEDTATYFCASMGAFDSWGPGTLVTVSS
VL: QVLTQTPSPVSAAVGGTVTINCQASQSIYNDNDLAWFQQKPGQPPKLLIYDASTLTSGVPSRFKGSGSGTQFTLTISDLDCDDAATYYCAARYSGNIYGFGGGTEVVVK
notes: Rabbit IgG from a rabbit hybridoma; also called h Id3 MoAb 3-3
B2: rabbit monoclonal anti-mouse/human Id3, clone #BCH-4/#16-1 (antibody, V domains shown)
VH: QSVEESGGRLVTPGTPLTLTCTASGFSLSSYYIHWVRQAPGKALEWIGYISDGGTTYYASWAKGRFTISKTSSTTVDLKMTSLTTEDTATYFCARQGFNIWGPGTLVTVSL
VL: AVLTQTPSPVSAAVGGTVTISCQSSQSVYNNNWLSWFQQKSGQPPKLLIYETSKLESGVPSRFKGSGSGTQFTLTIIDVQCDDAATYYCLGGYWTTSDNNIFGGGTEVVVK
notes: Rabbit IgG from a rabbit hybridoma; also called m/h Id3 MoAb 16-1
B3: rabbit monoclonal anti-mouse/human Id3, clone #BCH-4/#6-1 (antibody, V domains shown)
VH: B2 VH with S30N, Y31V, A43G, G54D, T56A, Y57R, S60T, D77N
VL: B2 VL with T19S, Y29W, S41P, I77S, I101V
notes: Rabbit IgG from a rabbit hybridoma; also called m/h Id3 MoAb 6-1
B4: rabbit monoclonal anti-mouse/human Id3, clone #BCH-4/#17-3 (antibody, V domains shown)
VH: B2 VH with S30N, Y31V, A43G, G54D, T56A, Y57R, S60T, D77N
VL: B2 VL with T19S, Y29W, S41P, I77S, I101V
notes: Rabbit IgG from a rabbit hybridoma; also called m/h Id3 MoAb 17-3; BCH-3/#17-3
B5: rabbit monoclonal anti-mouse/human Id3, clone #BCH-4/#42-1 (antibody, V domains shown)
VH: B2 VH
VL: B2 VL with T95S
notes: Rabbit IgG from a rabbit hybridoma; also called m/h Id3 MoAb 42-1

Residue numbers refer to the chain shown, from its start.

T1 sequence (P08515 whole entry): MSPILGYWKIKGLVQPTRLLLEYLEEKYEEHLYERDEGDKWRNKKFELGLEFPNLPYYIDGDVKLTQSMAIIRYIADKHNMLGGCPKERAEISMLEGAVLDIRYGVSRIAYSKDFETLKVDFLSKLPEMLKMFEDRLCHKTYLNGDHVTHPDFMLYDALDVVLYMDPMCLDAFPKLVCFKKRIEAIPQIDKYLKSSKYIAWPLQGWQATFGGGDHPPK

The first experiment addresses T1, glutathione S-transferase (GST) (UniProt P08515 1-218 = GST).
T1 construct: also called carrier protein GST
As to the kind of experiment: ELISA, Ab 0.025 µg/ml. In general terms: In an ELISA, binding on a coated surface is turned into a signal by an enzyme label.
B1 displayed an A450 of 0.048 A450.
On the same count and under the same terms, the value for B2 was 0.048 A450.
Still for that read-out and setting: the value for B3 was 0.049 A450; that for B4 was 0.045 A450; that for B5 was 0.045 A450.

The target in another experiment is T2, Mouse Id1: Histidine (mouse, UniProt P20067-2 1-148, limits assumed).
T2 construct: Fusion protein made in E. coli from vector pGW07; also called m-Id1-His; not shown: His tag
T2 sequence (looked up): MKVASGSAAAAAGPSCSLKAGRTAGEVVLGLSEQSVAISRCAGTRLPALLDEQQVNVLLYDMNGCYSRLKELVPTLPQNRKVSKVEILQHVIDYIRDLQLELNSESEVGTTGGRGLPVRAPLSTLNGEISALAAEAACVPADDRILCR
Description: ELISA, Ab 0.000 µg/ml (blank). As to the method: (§1) The rabbit monoclonal anti-human Id3 (clone #3-3) and the rabbit monoclonal anti-mouse/human Id3 (clones #6-1, 16-1, 17-3, and 42-1) produced in Example 6 were tested reactivity against the following antigens: mouse Id1:His, human Id1:His, mouse Id2:His, human Id2:His, mouse Id3:His, human Id3:His, mouse Id4:His, human Id4:His and GST.
(§2) 1. Microtiter wells (prepared in accordance with Example 6) were coated (0.1 μg/well) with mouse Id1:His, human Id1:His, human Id2:His, human Id3:His, and 1.0 μg/well with GST. [0155] 2. Antibody Diluent: 0.25% (w/v) BSA in 0.015M KPO₄ Buffer, 0.85% (w/v) NaCl, 0.1% (w/v) NaN₃, pH=7.40 [0156] 3. Rabbit monoclonal anti-human Id3 (clone #3-3) prepared in Example 7 was diluted to […] with the antibody diluent. […] 4. Rabbit monoclonal anti-mouse/human Id3 (clones #6-1, 16-1, 17-3, 42-1) prepared in Example 7 was diluted to 0.005, 0.010, 0.025, 0.05, 0.10, 0.25, and 0.50 μg/ml with the antibody diluent. […] 5. Conjugate Diluent: 50% (v/v) which consists of an aqueous solution containing Fetal Bovine Serum in 0.05 M Tris, 1% (v/v) Proclin-300, pH 7.6. [0159] 6. Conjugate: Goat anti-rabbit IgG (H+L)-HRP conjugate. [0160] 7. TMB reagent. […] 8. Stop solution (1 N HCI). Method
(§3) 1. Dispense 100 μL of antibody diluent, diluted rabbit monoclonal human Id3, and mouse/human Id3 hybridoma supernatants into appropriate wells. […] 2. Incubate at room temperature with mechanical shaking at 750 rpm for 90 minutes. [0165] 3. Remove the incubation mixture by flicking plate content into an appropriate waste container followed by rinsing the wells 5 times with distilled water. [0166] 4. Strike the wells sharply onto absorbent paper or paper towels to remove all residual water droplets. [0167] 5. Dispense 100 μL of 1:50,000 Goat Anti-Rabbit IgG-HRP Conjugate Reagent into each well. Gently mix for 5 seconds. [0168] 6. Incubate at room temperature with mechanical shaking at 750 rpm for 90 minutes. [0169] 7. Repeat procedures 3 and 4. [0170] 8. Dispense 100 μL of TMB Reagent into each well. Gently mix for 5 seconds. [0171] 9. Incubate at room temperature with mechanical shaking at 750 rpm for 20 minutes. […] 10.
For B1, the A450 came out at 0.047 A450.
The molecule B2 had an A450 of 0.044 A450.
In the case of B3, the A450 was found to be 0.045 A450.
Regarding B4, the A450 was 0.045 A450.
For B5, the A450 came out at 0.052 A450.

A further experiment has as its target T3, Mouse Id2: Histidine (mouse, UniProt P41136 1-134, limits assumed).
T3 construct: Fusion protein made in E. coli from vector pGW07; also called m-Id2: His; not shown: His tag
T3 sequence (looked up): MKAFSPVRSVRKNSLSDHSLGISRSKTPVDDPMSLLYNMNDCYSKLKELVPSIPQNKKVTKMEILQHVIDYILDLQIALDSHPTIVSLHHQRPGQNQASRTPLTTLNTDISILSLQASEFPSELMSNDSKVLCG
As to the kind of experiment: ELISA, Ab 0.000 µg/ml (blank). On the procedure: as §1, §2, §3
The molecule B1 displayed an A450 of 0.048 A450.
B2 showed an A450 of 0.046 A450.
B3 displayed an A450 of 0.044 A450.
On to B4, for which the A450 was 0.048 A450.
The molecule B5 showed an A450 of 0.048 A450.

For another experiment, the target named is T4, Human Id1: Histidine (human, UniProt P41134 1-155, limits assumed).
T4 construct: Fusion protein made in E. coli from vector pGW07; also called h-Id1: his; not shown: His tag
T4 sequence (looked up): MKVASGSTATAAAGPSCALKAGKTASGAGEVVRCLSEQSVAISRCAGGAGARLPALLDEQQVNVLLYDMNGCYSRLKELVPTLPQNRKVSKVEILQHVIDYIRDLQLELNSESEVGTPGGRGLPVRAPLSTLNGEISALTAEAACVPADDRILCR
As to the kind of experiment: ELISA, Ab 0.000 µg/ml (blank). As to the method:
as §1, §2, §3
B1: the A450 turned out to be 0.046 A450.
For B2, the A450 came to 0.043 A450.
Regarding B3, the A450 came out at 0.045 A450.
The molecule B4 came in with an A450 of 0.045 A450.
The molecule B5 returned an A450 of 0.043 A450.

A further experiment deals with T5, Human Id2: Histidine (human, UniProt Q02363 1-134, limits assumed).
T5 construct: Fusion protein made in E. coli from vector pGW07; also called h-Id2: His; not shown: His tag
T5 sequence (looked up): T3 sequence (looked up) with T60S, V131A
Description: ELISA, Ab 0.010 µg/ml. As to the method:
as §1, §2, §3
B1 had an A450 of 0.043 A450.
In turn, B2 returned an A450 of 0.044 A450.
On the same count and under the same terms, the same measure for B3: 0.044 A450; for B4: 0.043 A450.
The molecule B5 returned an A450 of 0.046 A450.

The next experiment has as its target T6, Human Id3: Histidine (human, UniProt Q02535 1-119 at identity 1.00)).
T6 construct: Fusion protein made in E. coli from vector pGW07; also called h-Id3: His; Human Id3 (coated wells); not shown: His tag
T6 chain: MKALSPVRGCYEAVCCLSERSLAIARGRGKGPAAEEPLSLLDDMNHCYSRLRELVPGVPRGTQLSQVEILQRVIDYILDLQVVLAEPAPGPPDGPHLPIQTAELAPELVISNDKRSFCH
As to the kind of experiment: ELISA, Ab 0.010 µg/ml. On the procedure: as §1, §2, §3
As for B2, the A450 was determined as 0.391 A450.
B3 yielded an A450 of 0.491 A450.
Consider B4, for which the A450 came out at 0.581 A450.
Same read-out and setting: the same measure for B5: 0.713 A450.

For another experiment, the target named is T7, Mouse Id3: Histidine (mouse, UniProt P41133 1-119).
T7 construct: Fusion protein made in E. coli from vector pGW07; also called m-Id3: His; Mouse Id3 (coated wells); not shown: His tag
T7 sequence: T6 chain with G31S, A33S, A34T, A105T, N112K
Description: ELISA, Ab 0.010 µg/ml. As to the method: as §1, §2, §3
On to B2, for which the A450 was 0.432 A450.
Same read-out and setting: the same measure for B3: 0.539 A450.
In turn, B4 gave an A450 of 0.69 A450.
The same measure, in the same setting: the same measure for B5: 0.756 A450.

The next experiment concerns the target T2, Mouse Id1: Histidine. As to the kind of experiment: ELISA, Ab 0.010 µg/ml. As to the method:
as §1, §2, §3
B1 returned an A450 of 0.047 A450.
On the same count and under the same terms, the same measure for B2: 0.05 A450.
Take B3: the A450 was 0.044 A450.
Still for that read-out and setting: the same measure for B4: 0.047 A450; for B5: 0.043 A450.

In another experiment the target is T3, Mouse Id2: Histidine. Description: ELISA, Ab 0.010 µg/ml. As to the method:
as §1, §2, §3
In turn, B1 gave an A450 of 0.045 A450.
Consider B2, for which the A450 amounted to 0.049 A450.
Molecule B3 gave an A450 of 0.048 A450.
Same read-out and setting: the value for B4 was 0.048 A450; that for B5 was 0.05 A450.

The target of another experiment is T4, Human Id1: Histidine. As to the kind of experiment: ELISA, Ab 0.010 µg/ml. As to the method:
as §1, §2, §3
B1 had an A450 of 0.046 A450.
B2 had an A450 of 0.042 A450.
Still for that read-out and setting: the value for B3 was 0.049 A450.
B4 came in with an A450 of 0.046 A450.
B5 had an A450 of 0.045 A450.
